Measurements published in the Human Domainome abundance scans (Beltran et al. 2025).

B1: Zinc finger homeobox protein 4, residues 2562 to 2617; numbered along this chain, Q86UP3 (parent)
chain: RLRTTITPEQLEILYEKYLLDSNPTRKMLDHIAREVGLKKRVVQVWFQNTRARERK
B2: Nucleolar transcription factor 1, residues 408 to 469; numbered along this chain, P17480 (parent)
chain: KRPVSAMFIFSEEKRRQLQEERPELSESELTRLLARMWNDLSEKKKAKYKAREAALKAQSER

Variants of: B1
Assay: abundance fitness (aPCA) (normalised: wild type 0, dead -1); higher = more abundant; growth selection in yeast, the domain comes from the species named
Conditions: Homo sapiens

Abundance fitness, by site and new letter:
T4: F -0.062, H -0.145, G -0.052, C -0.209, N -0.488, D 0.304, K -0.408, L -0.165, M -0.022
R3: F -0.02, D 0.68, W -0.156, M 0.182, L -0.008, V 0.132, P -0.004, T 0.359, E 0.207, K 0.288, I 0.319, G 0.194, S 0.301, Q 0.424, A 0.119, N 0.829
R1: A 0.743, S 0.311, T -0.054, C 0.24, N 0.002
L2: C -0.296, F 0.066, D 0.31, H -0.357, R -0.176, V -0.023, I -0.115, W -0.421, A -0.059, S 0.161, Q -0.603, M 0.024, N 0.309, G -0.132, E 0.429, K 0.24, T 0.105

Variants of: B2
Assay: as above
Conditions: Homo sapiens

Abundance fitness, by site and new letter:
R62: W 0.014, L -0.094, E 0.027, I -0.055, K 0.042, N -0.224, Y 0.016, T -0.051, D 0.073, G 0.055, A 0.079, P -0.232, M -0.019, Q 0.004, F -0.317, S -0.019
E61: F -0.129, K -0.093, S -0.045, V -0.069, D -0.069, Y -0.191, A -0.059, C -0.073, T 0.003, G -0.071, M 0.023, R -0.236, W -0.135
Q59: F -0.193, R -0.027, N 0.028, L -0.054, C -0.076, H -0.117, G -0.063, E 0.009, T -0.029, I -0.008, V -0.034, M 0.011, P -0.056, K 0.03, D 0, A -0.062, Y -0.262, W -0.194
A55: Y -0.149, W -0.13, V -0.025, T -0.062
S60: E 0, C -0.028, N -0.06, A -0.028, P -0.006, H -0.317, T -0.037, V -0.038, L -0.062, G 0.027, I -0.057, W -0.049, R -0.059, Q -0.036, F 0.031, M -0.113
A58: V -0.017, Q -0.002, L -0.025, C -0.067, F -0.03, P -0.084, I 0.022, G 0.001, K -0.042, Y -0.173, D 0.006, R -0.041, N 0.013, E -0.069, H 0.029, W -0.097, S -0.051
L56: C -0.164, P -0.156, I 0.004, R -0.111, Y -0.085, H -0.05, K -0.082, S 0.013, G -0.072, E -0.045, M -0.145, A -0.023, V -0.036, Q -0.089, D -0.078, T 0.01, F -0.076, N -0.157
K57: I -0.045, N -0.068, H -0.044, S -0.005, D -0.096, L -0.07, A -0.069, E 0.017, W -0.146, T -0.059, R -0.079, Q -0.16, V -0.085, F -0.058, P -0.087, Y -0.162, G -0.073, C -0.048
